Experimental data reported in publication PMC4355975, “PAT1 inversely regulates the surface Amyloid Precursor Protein level in mouse primary neurons” (BMC Neuroscience, 2015).

Tests used:
[1] = molecular target: T1, Amyloid Precursor Protein (APP) (mouse (endogenous in primary cortical …, UniProt P12023 18-770)); assay: co-IP; after cell surface biotinylation of mouse primary cortical neurons at 6 DIV (Cell surface Co-IP); APP precipitated with anti-APP Cter polyclonal antibody; blots for APP and PAT1; conditions: partners not purified
T1 construct: Amyloid precursor protein, endogenous in mouse primary cortical neurons; precipitated with the anti-APP Cter polyclonal antibody, detected with anti-APP-Nter A4; In the cell surface co-IP the surface pool was labelled with sulfo-NHS-biotin; source: endogenous, mouse primary cortical neurons (E16, Swiss strain), in lysate

[2] = molecular target: T1, Amyloid Precursor Protein (APP); assay: co-IP; total extracts of mouse primary cortical neurons at 6 DIV; APP precipitated with anti-APP Cter polyclonal antibody and protein A Sepharose; IP buffer Hepes 10 mM, NaCl 150 mM, CaCl2 2 mM, 1% Triton X 100, 4°C; blots for APP and PAT1; conditions: partners not purified

B1: PAT1 (Protein interacting with APP tail 1) (natural protein, UniProt Q9DAX9 1-585, looked up)
chain: MAAVELEWIPETLYNTAISAVVDNYIRSRRDIRSLPENIQFDVYYKLYQQGRLCQLGSEFCELEVFAKVLRALDKRHLLHHCFQALMDHGVKVASVLAYSFSRRCSYIAESDAAVKEKAIQVGFVLGGFLSDAGWYSDAEKVFLSCLQLCTLHDEMLHWFRAVECCVRLLHVRNGNCKYHLGEETFKLAQTYMDKLSKHGQQANRAALYGELCALLFAKSHYDEAYKWCVEAMKEITAGLPVKVVVDVLRQASKACVVKREFKKAEQLIKHAVYLARDHFGSKHPKYSDTLLDYGFYLLNVDNICQSVAIYQAALDIRQSVFGGKNIHVATAHEDLAYSSYVHQYSSGKFDNALFHAERAIGIITHILPEDHLLLASSKRVKALILEEIAIDCHNKETEQRLLQEAHDLHLSSLQLAKKAFGEFNVQTAKHYGNLGRLYQSMRKFKEAEEMHIKAIQIKEQLLGQEDYEVALSVGHLASLYNYDMNQYENAEKLYLRSIAIGKKLFGEGYSGLEYDYRGLIKLYNSIGNYEKVFEYHNVLSNWNRLRDRQYSVTDALEDVSSSPQSTEEVVQSFLMAQNVEGPSC
notes: PAT1 / APPBP2, endogenous in mouse primary cortical neurons; detected by blot with mAb26; also called Ara67; source: endogenous, mouse primary cortical neurons (E16, Swiss strain), in lysate
- ratio of APP to PAT1 in the immunoprecipitate (arbitrary units) [1]: 6 AU
- ratio of APP to PAT1 in the immunoprecipitate (arbitrary units) [2]: 2.7 AU
